Results published in article PMC5063001 (Nucleic Acids Research, 2016).

Experiments:
[1] = biological target: T1, FLI1 DBD (276-375) (UniProt Q01543 276-375); test: X-ray crystallography
T1 sequence: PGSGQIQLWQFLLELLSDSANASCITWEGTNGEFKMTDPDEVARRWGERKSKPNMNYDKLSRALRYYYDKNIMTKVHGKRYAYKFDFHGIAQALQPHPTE

[2] = biological target: the molecule itself; test: crystal structure
[3] = biological target: T2, FLI1 DBD (259-399) (UniProt Q01543 259-399); test: fluorescence anisotropy
T2 sequence: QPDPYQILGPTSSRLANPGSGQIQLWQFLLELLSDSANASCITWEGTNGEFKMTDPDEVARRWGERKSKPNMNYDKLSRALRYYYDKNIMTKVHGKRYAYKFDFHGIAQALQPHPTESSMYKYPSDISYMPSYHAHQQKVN

[4] = biological target: T3, 15N-labeled FLI1 DBD (NMR) (UniProt Q01543 259-399); test: NMR
T3 sequence: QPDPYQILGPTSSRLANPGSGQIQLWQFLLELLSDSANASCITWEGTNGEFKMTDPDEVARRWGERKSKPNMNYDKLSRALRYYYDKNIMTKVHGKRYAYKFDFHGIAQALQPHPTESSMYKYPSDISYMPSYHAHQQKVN

B1: 11-mer GACCGGAAGTG (dsDNA)
DNA 1: GACCGGAAGTG
DNA 2: CACTTCCGGTC
binding result [1]: binds

B2: DNA binding domain of FLI1 (residues 276-375) (domain or fragment)
chain: PGSGQIQLWQFLLELLSDSANASCITWEGTNGEFKMTDPDEVARRWGERKSKPNMNYDKLSRALRYYYDKNIMTKVHGKRYAYKFDFHGIAQALQPHPTE
binding result [2]: binds

B3: AA(GGAA)6 (dsDNA)
DNA 1: AAGGAAGGAAGGAAGGAAGGAAGGAA
DNA 2: TTCCTTCCTTCCTTCCTTCCTTCCTT
binding result [3]: binds

B4: 12-mer TTGAAGGAAGAG (dsDNA)
DNA 1: TTGAAGGAAGAG
DNA 2: CTCTTCCTTCAA
binding result [4]: binds
